Source: article PMC6748948 (2019)

B1: ALK2-Fc (activin receptor like kinase 2, Fc fusion) (Fc fusion)
chain: MEDEKPKVNPKLYMCVCEGLSCGNEDHCEGQQCFSSLSINDGFHVYQKGCFQVYEQGKMTCKTPPSPGQAVECCQGDWCNRNITAQLPTKGKSFPGTQNFHLE
B2: ALK3-Fc (activin receptor like kinase 3, Fc fusion) (Fc fusion)
chain: QNLDSMLHGTGMKSDSDQKKSENGVTLAPEDTLPFLKCYCSGHCPDDAINNTCITNGHCFAIIEEDDQGETTLASGCMKYEGSDFQCKDSPKAQLRRTIECCRTNLCNQYLQPTLPPVVIGPFFDGSIR

Assays:
[1] = target: Peptide P3 (BMP9 peptide mimetic designed from the type I receptor binding site) (UniProt Q9UK05 320-429); test: SPR
[2] = target: Peptide P3r (randomly shuffled amino acid sequence of peptide P3); test: SPR

Binder	Kd [1] [mM]	Kd [2] [mM]
B1	6.7	9.42
B2	5.8	4.3
